Laboratory results from US20230279079A1 (published 2023).

Biological target: RBD-VLP (SARS-CoV-2, UniProt P0DTC2 340-538)

B1: FI-3A (antibody, V domains shown)
VH: EVQLLESGGGLIQPGGSLRLSCAASGFTVSSNYMSWVRQAPGKGLEWVSVIYSGGSTYYADSVKGRFTISRDNSKNTLYLQMNSLRAEDTAVYYCARDHVRPGMNIWGQGTMVTVSS
VL: not shown
IC50: 3 nM
